Measured values as given in CN116018351A (SHANGHAI YOUTI JISHENG BIOMEDICAL CO LTD, dated 2023).

T1: CD123-Fc重组蛋白 (human, UniProt P26951 19-305)
T1 construct: also called CD123-Fc蛋白; 人CD123-Fc; not shown: Fc part
T1 sequence: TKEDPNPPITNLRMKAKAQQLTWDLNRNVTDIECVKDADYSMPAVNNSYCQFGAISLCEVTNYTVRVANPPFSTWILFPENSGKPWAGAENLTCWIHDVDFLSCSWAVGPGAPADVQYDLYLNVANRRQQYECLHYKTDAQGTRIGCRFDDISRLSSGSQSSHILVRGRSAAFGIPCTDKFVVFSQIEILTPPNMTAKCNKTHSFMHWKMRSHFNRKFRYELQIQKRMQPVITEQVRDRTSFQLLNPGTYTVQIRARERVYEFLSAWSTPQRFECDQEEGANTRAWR

B1: 抗CD123 scFv-C17 (in a CAR on T cells) (scFv)
scFv: QSALTQPASVSGSLGQSITISCTGTSSDVGTYDYVSWYQQHPGKAPKLMIYDVTYRPSGVSHRFSGSKSGNTASLTISGLQADDEADYYCQQYNNWPPRYTFGQGTKVEIKGGGGSGGGGSGGGGSQVQLVQSGAEVEKPGASVKLSCTASGYNFNSYYMHWVRLTPGQGLEWMGLINPTNGRTTYAQKFQGRVTMTGDTSTRTVYLALSSLRSEDSALYYCARGSPPHIFDPDFDYWGQGTLVTVSS
notes: Human scFv from phage display; not shown: rest of the CAR, hinge domain to CD3-zeta domain
B2: 抗CD123 scFv-C5 (in a CAR on T cells) (scFv)
scFv: NFMLTQPHSVSESPGKTVTLSCTRSSGSIAGSYVQWYQQRPGSSPTTVIFQDNQRPSGVPDRFSGSIDKSSNSASLTISGLKTEDEADYYCQSYDSNNQVFGGGTKLTVLGGGGSGGGGSGGGGSEVHLVESGGGVVRPGGSLRLSCAASGFTFGDYGMSWVRQAPGKGLEWVSGINWNGGRTGYADSVKGRFTISRDNAKNSLYLQMNSLRAEDTALYYCARARGSGSYFGYMDVWGKGTTVTVSS
notes: Human scFv from phage display; also called 抗-CD123-C5; not shown: rest of the CAR, hinge domain to CD3-zeta domain
B3: 抗CD123 scFv-C9 (in a CAR on T cells) (scFv)
scFv: QSVLTQPPSASGTPGQRVTISCSGSNSNIENNYVYWYQHLPGTAPKRLIYQNNQRPSGVPDRFSGSKSGTSASLAISGLRSEDEADYYCSAWDDSLSAWVFGGGTELTVLGGGGSGGGGSGGGGSEVHLVESGGGLVQPGRSLRLSCTASGFTFGDYAMNWVRQAPGKGLEWVGFIRSKASGGTTDYAASVKGRFTISRDDSKSIAYLQMNSLKTEDTAVYYCTRALRGYSYGLFDYWGQGTLVTVSS
notes: as for B1
B4: 抗CD123 scFv-C11 (in a CAR on T cells) (scFv)
scFv: QSVVTQPPSASGTPGQRVTISCSGSSSNIGSNYVYWYQQLPGTAPKLLIYRNNQRPSGVPDRFSGSKSGTSASLAISGLRSEDEADYYCAAWDDSLSGYVFGTGTKLTVLGGGGSGGGGSGGGGSEVQLVESGGGLVQPGRSLRLSCTASGFTFGDYAMSWVRQAPGKGLEWVGFIRSKAYGGTTEYAASVKGRFTISRDDSKSIAYLQMNSLKTEDTAVYYCTRDIGYYGSGSYSPFDYWGQGTLVTVSS
notes: Human scFv from phage display; also called 抗-CD123-C11; not shown: rest of the CAR, hinge domain to CD3-zeta domain
B5: 抗CD123 scFv-C29 (in a CAR on T cells) (scFv)
scFv: QPVLTQPPSASGTPGQRVTISCSGSSSNIGSNYVYWYQQLPGTAPKLLIYRNNQRPSGVPDRFSGSKSGTSASLAISGLRSEDEADYYCAAWDDSLSGYVFGTGTKVTVLGGGGSGGGGSGGGGSEVHLVESGGGLVQPGRSLRLSCTASGFTFGDYAMSWVRQAPGKGLEWVGFIRSKAYGGTTEYAASVKGRFTISRDDSKSIAYLQMNSLKTEDTAVYYCTRDIGYYGSGSYSPFDYWGQGTLVTVSS
notes: as for B1
B6: 抗CD123 scFv-C4 (in a CAR on T cells) (scFv)
scFv: QSALTQPPSASGTPGQRVTISCSGSSSNIGSNYVNWYQQLPGTAPKLLIYRNNQRPSGVPDRFSGSKSGTSASLAISGLRSEDEADYYCAAWDDSLSGHGVFGTGTELTVLGGGGSGGGGSGGGGSQVQLVQSGPEVKKPGASVKVSCKASGYDFIRYYMNWVRQAPGQGPEWMGAIDPSDGDTTYGQKFQGRVTLTRDTFTSTVYMELSSLRSEDTAVYYCARDWELTNSYGLDVWGQGTTVTVSS
notes: as for B1
B7: 抗CD123 scFv-C6 (in a CAR on T cells) (scFv)
scFv: SYELTQPPSVSVSPGQTARIPCSGADLGDQYVSWYQHQPGQSPLLVIYEDDKRPSGIPERFSGSNSGNTATLTISGTQAMDEADYYCQAWDGNAAIFGGGTKLTVLGGGGSGGGGSGGGGSQVQLVQSGGGSVQPGGSLRLSCAASGFTFTRYSMNWVRQAPGKGLEWVSYISSSSSTIYYADSVKGRFTISRDNAKNSLYLQMNSLRDEDTAVYYCARDGYGGNSDYYGMDVWGQGTTVTVSS
notes: as for B1
B8: 抗CD123 scFv-C16 (in a CAR on T cells) (scFv)
scFv: QSVVTQPPSASGTPGQRVTISCSGSSSNIEGNTVSWYQQFPGAAPKLLIYSNSYRASGVPDRFSGSKSGTSASLAISELQSEDEADYYCSAWDDSLNGPVFGGGTELTVLGGGGSGGGGSGGGGSQVQLQESGGGLVQPGGSLRLSCAASGFTFSSYSMNWVRQAPGKGLEWVSYISSSSSTIYYADSVKGRFTISRDNAKNSLYLQMNSLRAEDTAVYYCARDIYGDWDYYYYGMDVWGQGTTVTVSS
notes: as for B1
B9: 抗CD123 scFv-C14 (in a CAR on T cells) (scFv)
scFv: DIRMTQSPSSLSASVGDRVTITCQASQDITNYLNWYHQKPGKAPKLLIYDASNLETGVPSRFSGGGSGTDFTFTISSLQSEDIGTYYCQQYDDLPLTFGGGTKVEIKGGGGSGGGGSGGGGSQVQLQESGPGLVKPSETLSLTCTVSGGSISSSSHYWGWIRQPPGKGLEWIGSIYYSGSTYYNPSLKSRVTISVDTSKNQFSLKLSSVTAADTAVYYCARRVWVWPTYGMDVWGQGTTVTVSS
notes: as for B1
B10: 抗CD123 scFv-C2 (in a CAR on T cells) (scFv)
scFv: QSVVTQPPSVSAAPGQKVTISCSGSSSNIGNNYVSWYQQFPGTAPKLLIYDNNKRPSGIPDRFSGSKSGTSGTLGITGLQTGDEADYYCVTWDTSLSAGVFGGGTKLTVLGGGGSGGGGSGGGGSQITLKESGGGLVKPGGSLRLSCAASGFTFSNAWMSWVRQAPGKGLEWVGRIKSKTDGGTTDYAAPVKGRFTISRDDSKNTLYLQMNSLKTEDTAVYYCTTDPHGYYYGMDVWGQGTTVTVSS
notes: as for B1
B11: 抗CD123 scFv-C18 (in a CAR on T cells) (scFv)
scFv: QSALTQPASVSGSPGQSITISCTGTSSDVGGYNYVSWYQQHPGKAPKLMIYDVSNRPSGVSNRFSGSKSGNTASLTISGLQAEDEADYYCSSYTSSSTLFVFGTGTELTVLGGGGSGGGGSGGGGSQVQLQESGPGLVKPSQTLSLTCTVSGGSISSGDYYWSWIRQSPGKGLEWIGYIHSTGTTYYNPSLKSRLTISLDTSKNQFSLKLNSVTAADTAVYYCARGGVGTIFNYWGQGTLVTVSS
notes: as for B1
B12: 抗CD123 scFv-C30 (in a CAR on T cells) (scFv)
scFv: AIRLTQSPSSLSASVGDRVTITCQASQNINNYLNWYQQKSGKAPKLLIYDASNLEAGVPSRFSGSASGTDFTFTISSLQPEDIATYYCQQNDNLPLTFGQGTRLEIKGGGGSGGGGSGGGGSEVQLVESGGGVVRPGGSLRLSCAASGFTFGDYGMSWVRQAPGKGLEWVSGINWNGGSTGYADSVKGRFTISRDNAKNSLYLQMNSLRAEDTALYYCARDRAPDYGDYLQVGTTDYWGQGTLVTVSS
notes: as for B1
B13: 抗CD123 scFv-C26 (in a CAR on T cells) (scFv)
scFv: QSVLTQPPSASGTPGQRVTISCSGSRSNIGSNTVSWYQQFPGTAPKLLIYLNNQRPSGVPDRFSGSKSGTSASLAISGLQSEDEAEYYCATWDDDLNGVFGGGTKLTVLGGGGSGGGGSGGGGSEVQLVESGGGLVQPGGSLRLSCAASGFTLSNFEMNWVRQAPGRGLEWVSYISATTSATSYADSVKGRFTISRDNAKNSLYLQMNSLRAEDTAVYYCARVRDGYNFGYYYYYMDVWGKGTTVTVSS
notes: as for B1
B14: 抗CD123 scFv-C15 (in a CAR on T cells) (scFv)
scFv: DIQLTQSPSTLSASVGDRVTISCRASQSISSWLAWYQHKPGKAPKLLIYKTSALEDGVPSRFSGSGSGTEFTLTISSLQPDDFATYFCLHYGSYTFGQGTKVDIKGGGGSGGGGSGGGGSEVQLVESGGGLVNPGGSLRLSCEASGFTFSDYYISWIRQAPGKGLEWISYISGSSTYTDFADSVKGRFTISRDNAKNTVFLQMNSLRAEDTAVYYCARDRRGRFDPWGQGTLVTVSS
notes: as for B1

Molecular target: T1, CD123-Fc重组蛋白
Assay: FACS staining of CAR T cells with CD123-Fc recombinant protein

Binder	binding result
B1	binds
B2	binds
B3	binds
B4	binds
B5	binds
B6	binds
B7	binds
B8	binds
B9	binds
B10	binds
B11	binds
B12	binds
B13	binds
B14	binds
